In US20230265151A1, “GIP/GLP1 CO-AGONIST COMPOUNDS” (priority 2020, published 2023):

B1: Example 315 (peptide)
peptide: YXEGTXTSDXXIXLDXIAQXXFIKXLIKGGPSSGAPPPS
modifications: Y-Aib-EGT-αMeF(2F)-TSD-4Pal-Aib-I-αMeL-LD-Orn-IAQ-Aib-Orn-FIK((2-[2-(2-Amino-ethoxy)-ethoxy]-acetyl)2-(γ-Glu)-CO-(CH2)12-CO2H)-αMeY-LIK((2-[2-(2-Amino-ethoxy)-ethoxy]-acetyl)2-(γ-Glu)-CO-(CH2)12-CO2H)GGPSSGAPPPS-NH2
B2: Example 316 (peptide)
peptide: YXEGTXTSDYXIXLDXIAQXXFIKXLIKGGPSSGAPPPS
modifications: Y-Aib-EGT-αMeF(2F)-TSDY-Aib-I-αMeL-LD-Orn-IAQ-Aib-Orn-FIK((2-[2-(2-Amino-ethoxy)-ethoxy]-acetyl)2-(γ-Glu)-CO-(CH2)12-CO2H)-αMeY-LIK((2-[2-(2-Amino-ethoxy)-ethoxy]-acetyl)2-(γ-Glu)-CO-(CH2)12-CO2H)GGPSSGAPPPS-NH2
B3: Example 332 (peptide)
peptide: YXEGTXTSDXSIXLDXIAQXKFIXXLIKGGPSSGAPPPS
modifications: Y-Aib-EGT-αMeF(2F)-TSD-hTyr-SI-αMeL-LD-Orn-IAQ-Aib-K((2-[2-(2-Amino-ethoxy)-ethoxy]-acetyl)2-(γ-Glu)-(10-(4-carboxyphenoxy)decanoyl))FI-(D-Glu)-αMeY-LIK((2-[2-(2-Amino-ethoxy)-ethoxy]-acetyl)2-(γ-Glu)-(10-(4-carboxyphenoxy)decanoyl))GGPSSGAPPPS-NH2
B4: Example 292 (peptide)
peptide: YXEGTXTSDKXIXLDXKAQXEFIXXLIEGGPSSGAPPPS
modifications: Y-Aib-EGT-αMeF(2F)-TSDK((2-[2-(2-Amino-ethoxy)-ethoxy]-acetyl)2-(γ-Glu)-CO-(CH2)10-CH3)-Aib-I-αMeL-LD-Orn-K((2-[2-(2-Amino-ethoxy)-ethoxy]-acetyl)2-(γ-Glu)-CO-(CH2)10-CH3)AQ-Aib-EFI-(D-Glu)-αMeY-LIEGGPSSGAPPPS-NH2
B5: Example 299 (peptide)
peptide: YXEGTXTSDXSIXLDXKAQXXFIXXLIKGGPSSGAPPPS
modifications: Y-Aib-EGT-αMeF(2F)-TSD-4Pal-SI-αMeL-LD-Orn-K((2-[2-(2-Amino-ethoxy)-ethoxy]-acetyl)2-(γ-Glu)-CO-(CH2)10-CH3)AQ-Aib-Orn-FI-(D-Glu)-αMeY-LIK((2-[2-(2-Amino-ethoxy)-ethoxy]-acetyl)2-(γ-Glu)-CO-(CH2)10-CH3)GGPSSGAPPPS-NH2
B6: Example 328 (peptide)
peptide: YXEGTXTSDXSIXLDXKAQXEFIXXLIKGGPSSGAPPPS
modifications: Y-Aib-EGT-αMeF(2F)-TSD-Nle-SI-αMeL-LD-Orn-K((2-[2-(2-Amino-ethoxy)-ethoxy]-acetyl)2-(γ-Glu)-(10-(4-carboxyphenoxy)decanoyl))AQ-Aib-EFI-(D-Glu)-αMeY-LIK((2-[2-(2-Amino-ethoxy)-ethoxy]-acetyl)2-(γ-Glu)-(10-(4-carboxyphenoxy)decanoyl))GGPSSGAPPPS-NH2
B7: Example 342 (peptide)
peptide: YXEGTXTSDXXIXLDXIAQXEFIKXLIKGGPSSGAPPPS
modifications: Y-Aib-EGT-αMeF(2F)-TSD-4Pal-Aib-I-αMeL-LD-Orn-IAQ-Aib-EFIK((2-[2-(2-Amino-ethoxy)-ethoxy]-acetyl)3-(γ-Glu)-CO-(CH2)12-CO2H)-αMeY-LIK((2-[2-(2-Amino-ethoxy)-ethoxy]-acetyl)3-(γ-Glu)-CO-(CH2)12-CO2H)GGPSSGAPPPS-NH2
B8: Example 327 (peptide)
peptide: YXEGTXTSDXSIXLDXKAQXEFIXXLIKGGPSSGAPPPS
modifications: Y-Aib-EGT-αMeF(2F)-TSD-hTyr-SI-αMeL-LD-Orn-K((2-[2-(2-Amino-ethoxy)-ethoxy]-acetyl)2-(γ-Glu)-(10-(4-carboxyphenoxy)decanoyl))AQ-Aib-EFI-(D-Glu)-αMeY-LIK((2-[2-(2-Amino-ethoxy)-ethoxy]-acetyl)2-(γ-Glu)-(10-(4-carboxyphenoxy)decanoyl))GGPSSGAPPPS-NH2
B9: Example 298 (peptide)
peptide: YXEGTXTSDXSIXLDXKAQXKFIXXLIXGGPSSGAPPPS
modifications: Y-Aib-EGT-αMeF(2F)-TSD-4Pal-SI-αMeL-LD-Orn-K((2-[2-(2-Amino-ethoxy)-ethoxy]-acetyl)2-(γ-Glu)-CO-(CH2)10-CH3)AQ-Aib-K((2-[2-(2-Amino-ethoxy)-ethoxy]-acetyl)2-(γ-Glu)-CO-(CH2)10-CH3)FI-(D-Glu)-αMeY-LI-Orn-GGPSSGAPPPS-NH2
B10: Example 300 (peptide)
peptide: YXEGTXTSDYXIXLDXKAQXKFIXXLIEGGPSSGAPPPS
modifications: Y-Aib-EGT-αMeF(2F)-TSDY-Aib-I-αMeL-LD-Orn-K((2-[2-(2-Amino-ethoxy)-ethoxy]-acetyl)2-(γ-Glu)-CO-(CH2)10-CH3)AQ-Aib-K((2-[2-(2-Amino-ethoxy)-ethoxy]-acetyl)2-(γ-Glu)-CO-(CH2)10-CH3)FI-(D-Glu)-αMeY-LIEGGPSSGAPPPS-NH2
B11: Example 343 (peptide)
peptide: YXEGTXTSDYXIXLDXIAQXEFIKXLIKGGPSSGAPPPS
modifications: Y-Aib-EGT-αMeF(2F)-TSDY-Aib-I-αMeL-LD-Orn-IAQ-Aib-EFIK((2-[2-(2-Amino-ethoxy)-ethoxy]-acetyl)3-(γ-Glu)-CO-(CH2)12-CO2H)-αMeY-LIK((2-[2-(2-Amino-ethoxy)-ethoxy]-acetyl)3-(γ-Glu)-CO-(CH2)12-CO2H)GGPSSGAPPPS-NH2
B12: Example 345 (peptide)
peptide: YXEGTXTSDXXIXLDXIAQXEFIKXLIKGGPSSGAPPPS
modifications: Y-Aib-EGT-αMeF(2F)-TSD-4Pal-Aib-I-αMeL-LD-Orn-IAQ-Aib-EFIK((2-[2-(2-Amino-ethoxy)-ethoxy]-acetyl)3-(γ-Glu)-(10-(4-carboxyphenoxy)decanoyl))-αMeY-LIK((2-[2-(2-Amino-ethoxy)-ethoxy]-acetyl)3-(γ-Glu)-(10-(4-carboxyphenoxy)decanoyl))GGPSSGAPPPS-NH2

Key:
Assay in all cases: cell-based or functional assay
human glucagon receptor = human glucagon receptor (human, UniProt P47871 26-477)
human GIP receptor = target: T1, human GIP receptor (human, UniProt P48546 22-466)
T1 sequence (looked up): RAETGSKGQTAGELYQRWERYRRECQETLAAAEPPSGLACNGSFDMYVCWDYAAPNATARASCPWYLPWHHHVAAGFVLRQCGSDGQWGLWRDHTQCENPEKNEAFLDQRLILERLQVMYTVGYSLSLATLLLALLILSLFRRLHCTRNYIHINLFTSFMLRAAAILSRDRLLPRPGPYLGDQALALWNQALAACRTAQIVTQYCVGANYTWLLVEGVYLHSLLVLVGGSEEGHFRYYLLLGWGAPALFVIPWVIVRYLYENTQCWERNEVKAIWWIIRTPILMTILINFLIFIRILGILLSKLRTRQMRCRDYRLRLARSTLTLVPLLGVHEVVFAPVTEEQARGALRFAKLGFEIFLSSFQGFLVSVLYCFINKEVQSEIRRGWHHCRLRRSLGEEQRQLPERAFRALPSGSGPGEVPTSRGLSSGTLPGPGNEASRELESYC

human GLP-1 receptor = human GLP-1 receptor (human, UniProt P43220 24-463)
hGLP-1R = hGLP-1R (Homo sapiens, UniProt P43220)
[1] = target: T2, human GIP receptor (human) (UniProt P48546)
T2 sequence (looked up): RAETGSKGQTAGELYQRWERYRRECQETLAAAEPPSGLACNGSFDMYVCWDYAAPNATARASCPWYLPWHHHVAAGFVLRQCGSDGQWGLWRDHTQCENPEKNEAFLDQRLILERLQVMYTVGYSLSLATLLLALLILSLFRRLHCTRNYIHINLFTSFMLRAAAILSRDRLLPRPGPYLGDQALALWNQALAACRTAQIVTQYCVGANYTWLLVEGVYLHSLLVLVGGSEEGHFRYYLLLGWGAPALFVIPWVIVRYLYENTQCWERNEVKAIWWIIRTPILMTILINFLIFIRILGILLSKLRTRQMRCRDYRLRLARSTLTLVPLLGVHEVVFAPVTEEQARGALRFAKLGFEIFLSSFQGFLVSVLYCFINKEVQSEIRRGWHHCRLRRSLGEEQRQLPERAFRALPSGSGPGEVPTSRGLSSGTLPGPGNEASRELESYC

[2] = target: human glucagon receptor (human) (UniProt P47871)

Binder	cAMP EC50 (1.0% HSA) (human glucagon receptor) [nM]	cAMP EC50 (1.0% HSA) (human GIP receptor) [nM]	cAMP Emax (1.0% HSA) (human GIP receptor) [%]	cAMP EC50 (1.0% HSA) (human GLP-1 receptor) [nM]	cAMP Emax (1.0% HSA) (human GLP-1 receptor) [%]	cAMP EC50 (hGLP-1R) [nM]	cAMP Emax (hGLP-1R) [%]	cAMP EC50 [1] [nM]	cAMP EC50 [2] [nM]	cAMP Emax [1] [%]
B1	> 9950	0.393	89.2	5.38	93.5					
B2	> 9950	1.11		19.2	113					
B3	> 9950	4.59		33.3	116					
B4	> 9950	0.416		4.35		0.0758	104	0.0062	> 9950	
B5	> 9950	0.204		2.58	102	0.126	103	0.0104	> 9950	101
B6	> 9950	0.75		23.3						
B7	> 9950	1.04		13.6						
B8	> 9950	0.751		13.6						
B9	> 9950	0.237	95	3.64		0.19	106		> 9950	97.4
B10	> 9950	1.25	91.5	19.6		0.194	107	0.0128	> 9950	102
B11	> 9950	2.38	90.2	20.2	98.2					
B12	> 9950	0.731		11.8						
